Measured values as given in paper PMC6557900 (Nature Communications, 2019).
Where no end group is shown, it is not given here. [ ]: non-standard residue; d: D form. pY = N[C@@H](Cc1ccc(OP(=O)(O)O)cc1)C(=O)O

B1: GHR_pY487 phosphopeptide (growth hormone receptor) (peptide)
peptide: NIDF[pY]AQVSDI-NH2
notes: growth hormone receptor (GHR), 11-residue peptide around pY487; source: synthetic peptide (solid-phase, Fmoc, Rink amide resin), HPLC purified
B2: EpoR_pY426 peptide, alanine at pY(+1) (peptide)
chain: ASFE[pY]AILDPS-NH2
modifications: N-terminus assumed
SMILES: CC[C@H](C)[C@H](NC(=O)[C@H](C)NC(=O)[C@H](Cc1ccc(OP(=O)(O)O)cc1)NC(=O)[C@H](CCC(=O)O)NC(=O)[C@H](Cc1ccccc1)NC(=O)[C@H](CO)NC(=O)[C@H](C)N)C(=O)N[C@@H](CC(C)C)C(=O)N[C@@H](CC(=O)O)C(=O)N1CCC[C@H]1C(=O)N[C@@H](CO)C(N)=O
B3: EpoR_pY426 peptide, alanine at pY(+6) (peptide)
chain: ASFE[pY]TILDPA-NH2
modifications: N-terminus assumed
SMILES: CC[C@H](C)[C@H](NC(=O)[C@@H](NC(=O)[C@H](Cc1ccc(OP(=O)(O)O)cc1)NC(=O)[C@H](CCC(=O)O)NC(=O)[C@H](Cc1ccccc1)NC(=O)[C@H](CO)NC(=O)[C@H](C)N)[C@@H](C)O)C(=O)N[C@@H](CC(C)C)C(=O)N[C@@H](CC(=O)O)C(=O)N1CCC[C@H]1C(=O)N[C@@H](C)C(N)=O

Each binder was assayed against T1, SOCS2(C133Y)-ElonginB-ElonginC complex (human | , UniProt O14508 32-198; Q15370 1-104; Q15369 17-112, C133Y) (assay: SPR; biotinylated SBC (wild-type or mutant) immobilised, peptide injected at 0.08-60 μM; 20 mM HEPES pH 7.5, 150 mM NaCl, 1 mM TCEP, 0.005% Tween20, 10 °C; steady-state affinity, 1:1 model). Details: both partners purified.
T1 construct: also called SBC C133Y; source: E. coli BL21(DE3), co-expressed, purified (as wild-type SBC); not shown: His6, N-terminal, cleaved; copies: + +
T1 sequence (O14508 32-198 C133Y, chain 1 of 3): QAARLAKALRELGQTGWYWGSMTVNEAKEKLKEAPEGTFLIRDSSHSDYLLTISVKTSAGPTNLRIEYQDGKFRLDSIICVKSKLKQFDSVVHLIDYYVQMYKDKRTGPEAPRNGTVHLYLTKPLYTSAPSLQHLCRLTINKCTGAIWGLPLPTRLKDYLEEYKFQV
T1 sequence (Q15370 1-104, chain 2 of 3): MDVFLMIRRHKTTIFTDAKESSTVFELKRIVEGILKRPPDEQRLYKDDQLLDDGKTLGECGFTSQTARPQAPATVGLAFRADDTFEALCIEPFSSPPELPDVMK
T1 sequence (Q15369 17-112, chain 3 of 3): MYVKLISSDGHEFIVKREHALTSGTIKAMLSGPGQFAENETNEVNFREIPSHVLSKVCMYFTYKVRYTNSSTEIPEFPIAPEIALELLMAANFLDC
Work on B1 yielded a Kd of 7.7 µM.

The binders below were run against T2, SOCS2(L106V)-ElonginB-ElonginC complex (human | , UniProt O14508 32-198; Q15370 1-104; Q15369 17-112, L106V) in the same assay as above. Details: both partners purified.
T2 construct: also called SBC L106V; source: E. coli BL21(DE3), co-expressed, purified (as wild-type SBC); not shown: His6, N-terminal, cleaved; copies: + +
T2 sequence (O14508 32-198 L106V, chain 1 of 3): as the sequence (O14508 32-198 C133Y, chain 1 of 3) above, with L75V, Y102C counted along it
T2 sequence (Q15370 1-104, chain 2 of 3): as the sequence (Q15370 1-104, chain 2 of 3) above
T2 sequence (Q15369 17-112, chain 3 of 3): as the sequence (Q15369 17-112, chain 3 of 3) above
Binder B1 has a Kd of 8.9 µM.

These binders were tested against T3, SOCS2-ElonginB-ElonginC complex, wild-type (human | , UniProt O14508 32-198; Q15370 1-104; Q15369 17-112) in the same assay as above. Details: both partners purified.
T3 construct: Untagged in ITC and NMR; also called SBC; wild-type SBC; source: E. coli BL21(DE3), co-expressed, purified (HisTrap, TEV cleavage, second HisTrap, SEC Superdex 75); not shown: His6, N-terminal, cleaved; copies: + +
T3 sequence (O14508 32-198, chain 1 of 3): as the sequence (O14508 32-198 C133Y, chain 1 of 3) above, with Y102C counted along it
T3 sequence (Q15370 1-104, chain 2 of 3): as the sequence (Q15370 1-104, chain 2 of 3) above
T3 sequence (Q15369 17-112, chain 3 of 3): as the sequence (Q15369 17-112, chain 3 of 3) above
With B1 the Kd was 5.1 µM.

Each binder was assayed against T4, SOCS2-ElonginB-ElonginC complex, wild-type (human | , UniProt O14508 32-198; Q15370 1-104; Q15369 17-112) (assay: 19F ligand-observed CPMG NMR displacement assay; peptide (GHR 10 μM, EpoR 50 μM) displaces the fluorinated pY analog spy molecule 3 (100 μM) from SBC (5 μM); 20 mM HEPES pH 8, 50 mM NaCl, 1 mM DTT, 20% D2O, 298 K). Details: both partners purified.
T4 sequence (O14508 32-198, chain 1 of 3): as the sequence (O14508 32-198 C133Y, chain 1 of 3) above, with Y102C counted along it
T4 sequence (Q15370 1-104, chain 2 of 3): as the sequence (Q15370 1-104, chain 2 of 3) above
T4 sequence (Q15369 17-112, chain 3 of 3): as the sequence (Q15369 17-112, chain 3 of 3) above
In the case of ASFE[pY]TIADPS-NH2 [EpoR_pY426 peptide, alanine at pY(+3)], the Ki is reported as 20.4 µM.
For PYPD[pY]TSIHIV-NH2 [GHR_pY595 peptide V(−3)Y], the Ki was 3.3 µM.
Work on PRPD[pY]TSIHIV-NH2 [GHR_pY595 peptide V(−3)R] yielded a Ki of 20.6 µM.
ASFE[pY]TILAPS-NH2 [EpoR_pY426 peptide, alanine at pY(+4)] was tested, and the Ki was 14.1 µM.
For PVPD[pY]TSAHIV-NH2 [GHR_pY595 peptide, alanine at pY(+3)], the Ki was 3.4 µM.
Work on B2 yielded a Ki of 10.3 µM.
With PVPD[pY]ASIHIV-NH2 [GHR_pY595 peptide, alanine at pY(+1)] the Ki was 0.5 µM.
PVPD[pY]TSIAIV-NH2 [GHR_pY595 peptide, alanine at pY(+4)] gave a Ki of 18.5 µM.
ASFE[pY]TALDPS-NH2 [EpoR_pY426 peptide, alanine at pY(+2)] showed a Ki of 17.2 µM.
In the case of ASFA[pY]TILDPS-NH2 [EpoR_pY426 peptide, alanine at pY(−1)], the Ki is reported as 23.5 µM.
Work on B3 yielded a Ki of 11.3 µM.
With PAPD[pY]TSIHIV-NH2 [GHR_pY595 peptide, alanine at pY(−3)] the Ki was 3.4 µM.
For ASFE[pY]TILDAS-NH2 [EpoR_pY426 peptide, alanine at pY(+5)], the Ki was 6.9 µM.

Each binder was assayed against T4, SOCS2-ElonginB-ElonginC complex, … (assay: SPR; biotinylated SBC (wild-type or mutant) immobilised, peptide injected at 0.08-60 μM; 20 mM HEPES pH 7.5, 150 mM NaCl, 1 mM TCEP, 0.005% Tween20, 10 °C; steady-state affinity, 1:1 model). Details: both partners purified.
With ASFE[pY]TIADPS-NH2 [EpoR_pY426 peptide, alanine at pY(+3)] the Kd was 32.3 µM.
PYPD[pY]TSIHIV-NH2 [GHR_pY595 peptide V(−3)Y] gave a Kd of 3.3 µM.
For PRPD[pY]TSIHIV-NH2 [GHR_pY595 peptide V(−3)R], the Kd was 9 µM.
For ASFE[pY]TILAPS-NH2 [EpoR_pY426 peptide, alanine at pY(+4)], the Kd was 18 µM.
PVPD[pY]TSAHIV-NH2 [GHR_pY595 peptide, alanine at pY(+3)] gave a Kd of 3.7 µM.
B2 gave a Kd of 17.1 µM.
PVPD[pY]ASIHIV-NH2 [GHR_pY595 peptide, alanine at pY(+1)] showed a Kd of 1 µM.
Work on PVPD[pY]TSIAIV-NH2 [GHR_pY595 peptide, alanine at pY(+4)] yielded a Kd of 6.7 µM.
Work on ASFE[pY]TALDPS-NH2 [EpoR_pY426 peptide, alanine at pY(+2)] yielded a Kd of 30.8 µM.
Work on ASFA[pY]TILDPS-NH2 [EpoR_pY426 peptide, alanine at pY(−1)] yielded a Kd of 21.7 µM.
With B3 the Kd was 16.4 µM.
Work on ASFE[pY]TILDAS-NH2 [EpoR_pY426 peptide, alanine at pY(+5)] yielded a Kd of 8.9 µM.
Work on PVPD[pY]TSIHIA-NH2 [GHR_pY595 peptide, alanine at pY(+6)] yielded a Kd of 1.9 µM.

The binders below were run against T3, SOCS2-ElonginB-ElonginC complex, … (assay: ITC; peptide (750 or 1500 μM) titrated into SBC (50 μM); 100 mM HEPES pH 7.5, 50 mM NaCl, 0.5 mM TCEP, 298 K; one-set-of-site model). Details: both partners purified.
In the case of B1, the Kd is reported as 2300 nM.
